In patent US20080064048A1, “Methods for Selecting Proteins that are Readily Presented as Antigens on Dendritic Cells” (Medical and Biological Laboratories, Co., Ltd., priority 2004, published 2008):

Target: T1, TAP2 (Mus musculus, UniProt P36371)
T1 construct: endogenous in cells; host or cells: DC2.4 mouse dendritic cell line
T1 sequence (P36371 1-702): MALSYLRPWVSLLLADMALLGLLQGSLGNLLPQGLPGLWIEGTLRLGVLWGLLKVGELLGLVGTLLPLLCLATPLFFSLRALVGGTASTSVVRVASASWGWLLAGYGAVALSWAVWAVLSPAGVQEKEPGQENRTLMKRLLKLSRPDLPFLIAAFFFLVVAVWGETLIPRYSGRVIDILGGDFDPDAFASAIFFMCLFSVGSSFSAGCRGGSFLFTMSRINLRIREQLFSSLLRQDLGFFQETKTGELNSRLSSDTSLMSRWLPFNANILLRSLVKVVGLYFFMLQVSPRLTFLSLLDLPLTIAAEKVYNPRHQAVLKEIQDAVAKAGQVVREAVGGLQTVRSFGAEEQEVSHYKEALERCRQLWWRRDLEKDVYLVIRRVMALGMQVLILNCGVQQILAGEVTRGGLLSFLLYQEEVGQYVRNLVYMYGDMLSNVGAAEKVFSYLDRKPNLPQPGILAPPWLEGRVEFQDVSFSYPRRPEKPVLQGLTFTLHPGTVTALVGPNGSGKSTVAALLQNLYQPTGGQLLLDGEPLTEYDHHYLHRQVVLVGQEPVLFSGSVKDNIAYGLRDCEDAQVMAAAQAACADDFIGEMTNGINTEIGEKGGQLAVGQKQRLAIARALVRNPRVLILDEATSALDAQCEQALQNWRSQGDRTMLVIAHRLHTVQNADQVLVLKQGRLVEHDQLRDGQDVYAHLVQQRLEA
T1 sequence (P21958 1-724 partner): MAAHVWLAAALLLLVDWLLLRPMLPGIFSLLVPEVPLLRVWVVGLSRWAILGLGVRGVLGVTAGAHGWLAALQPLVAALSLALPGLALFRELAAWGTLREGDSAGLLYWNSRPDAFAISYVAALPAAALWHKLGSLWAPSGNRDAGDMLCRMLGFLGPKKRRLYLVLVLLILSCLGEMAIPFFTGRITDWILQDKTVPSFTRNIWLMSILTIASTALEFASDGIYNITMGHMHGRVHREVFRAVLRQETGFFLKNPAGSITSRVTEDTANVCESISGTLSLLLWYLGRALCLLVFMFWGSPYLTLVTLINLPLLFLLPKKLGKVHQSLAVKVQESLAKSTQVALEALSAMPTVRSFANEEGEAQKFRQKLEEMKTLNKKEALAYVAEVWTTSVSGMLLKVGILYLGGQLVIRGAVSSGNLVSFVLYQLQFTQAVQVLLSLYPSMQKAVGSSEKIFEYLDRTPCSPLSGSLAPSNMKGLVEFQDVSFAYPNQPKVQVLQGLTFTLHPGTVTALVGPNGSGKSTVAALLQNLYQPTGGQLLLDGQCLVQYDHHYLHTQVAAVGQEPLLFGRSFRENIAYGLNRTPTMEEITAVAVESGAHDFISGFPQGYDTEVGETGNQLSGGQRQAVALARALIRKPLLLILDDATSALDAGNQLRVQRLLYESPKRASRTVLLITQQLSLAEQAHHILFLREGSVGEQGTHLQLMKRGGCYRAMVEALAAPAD
Experiment: Co-immunoprecipitation of bOVA with anti-TAP2
Assay type: binding
Conditions: DC2.4 cells incubated with bOVA
Description: 2×10^7 DC2.4 or BMDC cells were cultured for four hours in a medium containing 10 μM MG-132 in the presence of bOVA at 250 μg mL^−1. Cells were lysed in 20 mM HEPES pH7.6 containing 1% digitonin and protease inhibitors to collect biotin-labeled samples. The samples were cleared of impurities in advance using protein G sepharose (Amersham Pharmacia Biotech), and after incubation with antibodies for precipitation (anti-Sec61β, anti Sec61α, anti-VCP, anti-BiP, anti-PDI, anti-calreticulin, anti-TAP1, and anti-TAP2), the immunoprecipitates were collected using protein G. When chicken anti-CHIP antibody was used, immunoprecipitates were collected using a rabbit anti-IgY column (a person, MBL). The precipitated samples were analyzed by SDS-PAGE and Western blotting.

- interaction with TAP2 (co-immunoprecipitation): does not interact
B1: bOVA: biotin-labeled OVA antigen (protein)
chain: GSIGAASMEFCFDVFKELKVHHANENIFYCPIAIMSALAMVYLGAKDSTRTQINKVVRFDKLPGFGDSIEAQCGTSVNVHSSLRDILNQITKPNDVYSFSLASRLYAEERYPILPEYLQCVKELYRGGLEPINFQTAADQARELINSWVESQTNGIIRNVLQPSSVDSQTAMVLVNAIVFKGLWEKAFKDEDTQAMPFRVTEQESKPVQMMYQIGLFRVASMASEKMKILELPFASGTMSMLVLLPDEVSGLEQLESIINFEKLTEWTSSNVMEERKIKVYLPRMKMEEKYNLTSVLMAMGITDVFSSSANLSGISSAESLKISQAVHAAHAEINEAGREVVGSAEAGVDAASVSEEFRADHPFLFCIKHIATNAVLFFGRCVSP
